In article PMC9449591, “Therapeutic application of PPE2 protein of Mycobacterium tuberculosis in inhibiting tissue inflammation”:

Molecular target: T1, rPPE2 (Mycobacterium tuberculosis, UniProt P9WI47 1-556)
T1 sequence: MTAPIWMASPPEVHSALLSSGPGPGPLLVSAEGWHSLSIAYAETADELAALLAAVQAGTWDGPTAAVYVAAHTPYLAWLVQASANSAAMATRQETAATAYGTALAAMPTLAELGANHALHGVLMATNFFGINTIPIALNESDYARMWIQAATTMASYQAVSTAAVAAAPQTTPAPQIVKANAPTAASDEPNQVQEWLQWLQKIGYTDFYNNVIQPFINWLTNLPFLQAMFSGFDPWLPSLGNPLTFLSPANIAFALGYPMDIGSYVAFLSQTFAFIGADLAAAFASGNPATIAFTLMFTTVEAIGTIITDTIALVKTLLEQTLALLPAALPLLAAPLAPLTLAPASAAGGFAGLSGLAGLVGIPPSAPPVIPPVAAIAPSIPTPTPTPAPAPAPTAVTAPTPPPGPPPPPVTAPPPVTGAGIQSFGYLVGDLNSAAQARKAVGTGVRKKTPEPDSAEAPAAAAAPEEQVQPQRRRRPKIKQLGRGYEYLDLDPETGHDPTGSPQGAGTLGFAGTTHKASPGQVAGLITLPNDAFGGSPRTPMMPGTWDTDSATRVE
Assay: EMSA; 20 mM HEPES, 0.5 mM DTT, 0.5 mM EDTA, 5% glycerol; […]; 30 min at room temperature; […]
Settings: protein: recombinant; tags: His (pRSET-A vector, TALON purified); label: 32P 5' end label (T4 PNK)

B1: scf core promoter 60-bp EMSA oligonucleotide (dsDNA)
DNA 1: CGCGTGCGGGCGGGAGGGAGCTGTATAAAAAGCGCTGGCGGCGCAGCAGCCGGGGCTTCATTTGCG
DNA 2: CGCAAATGAAGCCCCGGCTGCTGCGCCGCCAGCGCTTTTTATACAGCTCCCTCCCGCCCGCACGCG
B1: binds.
